T1: cCFP-DGCR14/ESS2 (human DGCR14/ESS2 fused with the C-terminal fragment of CFP) (Homo sapiens, UniProt Q96DF8 1-476)
T1 construct: BiFC fusion transiently expressed in Arabidopsis leaf mesophyll protoplasts; also called Has DGCR14/ESS2; NM_022719; not shown: C-terminal fragment of CFP (cCFP) from vector pSATI-cCFP-C
T1 sequence: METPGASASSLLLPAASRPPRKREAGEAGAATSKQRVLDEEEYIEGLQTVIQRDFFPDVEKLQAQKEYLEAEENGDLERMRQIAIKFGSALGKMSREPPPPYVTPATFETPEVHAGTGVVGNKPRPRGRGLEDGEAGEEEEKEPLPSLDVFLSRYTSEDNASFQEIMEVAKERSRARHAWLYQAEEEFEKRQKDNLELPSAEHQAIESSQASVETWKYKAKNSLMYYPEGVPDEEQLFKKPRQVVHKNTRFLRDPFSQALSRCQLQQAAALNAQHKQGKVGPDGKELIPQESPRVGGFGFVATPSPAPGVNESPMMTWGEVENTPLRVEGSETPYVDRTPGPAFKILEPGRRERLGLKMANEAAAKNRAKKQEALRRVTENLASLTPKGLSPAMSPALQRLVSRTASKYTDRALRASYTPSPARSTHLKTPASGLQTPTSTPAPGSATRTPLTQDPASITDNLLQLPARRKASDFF

B1: nVenus-U1-70 k (U1 SMALL NUCLEAR RIBONUCLEOPROTEIN-70K fused with the N-terminal fragment of Venus) (other, Arabidopsis, UniProt Q42404 1-427, looked up)
chain: MGDSGDPFLRNPNAAVQARAKVQNRANVLQLKLMGQSHPTGLTNNLLKLFEPRPPLEYKPPPEKRKCPPYTGMAQFVSNFAEPGDPEYAPPKPEVELPSQKRERIHKLRLEKGVEKAAEDLKKYDPNNDPNATGDPYKTLFVSRLNYESSESKIKREFESYGPIKRVHLVTDQLTNKPKGYAFIEYMHTRDMKAAYKQADGQKIDGRRVLVDVERGRTVPNWRPRRLGGGLGTSRVGGGEEIVGEQQPQGRTSQSEEPSRPREEREKSREKGKERERSRELSHEQPRERSRDRPREDKHHRDRDQGGRDRDRDSRRDRDRTRDRGDRDRRDRDRGRDRTSRDHDRDRSRKKERDYEGGEYEHEGGGRSRERDAEYRGEPEETRGYYEDDQGDTDRYSHRYDKMEEDDFRYEREYKRSKRSESREYVR
notes: BiFC fusion transiently expressed in Arabidopsis protoplasts; also called AT3G50670; not shown: N-terminal fragment of Venus (nVenus) from vector pSATI-nVenus-C
B2: nVenus-U2B (U2 SMALL NUCLEAR RIBONUCLEOPROTEIN B fused with the N-terminal fragment of Venus) (other, Arabidopsis, UniProt O22922 1-232, looked up)
chain: MLTADIPPNQSIYIQNLNERIKKEELKRSLYCLFSQFGRILDVVALKTPKLRGQAWVTFSEVTAAGHAVRQMQNFPFYDKPMRLQYAKAKSDCLAKAEGTFVPKDKKRKQEEKVERKREDSQRPNTANGPSANGPSANNGVPAPSFQPSGQETMPPNNILFIQNLPHETTSMMLQLLFEQYPGFKEIRMIDAKPGIAFVEYEDDVQASIAMQPLQGFKITPQNPMVISFAKK
notes: BiFC fusion transiently expressed in Arabidopsis protoplasts; also called AT2G30260; not shown: N-terminal fragment of Venus (nVenus) from vector pSATI-nVenus-C
B3: cCFP-DGCR14l (Arabidopsis thaliana DGCR14-like fused with the C-terminal fragment of CFP) (other)
chain: MFLSPGHSPRQISSPSPSSYSDDTLRSTPRSSSSEIIPRNPRKRMRVLDEDAYVEAIEKIIERDYFPDITKLRDRLDWIQAVKTRDPIQIRDAQLKIIERRGKKANHHVGDTEGKTQTPGSTFLRNFTPLDEFDGKTPRTPGVSGREFHGVEVDAGDGDEDIDLNLSLDEFFRRYTSEDNESFSKILEKVNRKKKEKYGFLLEGEKEDGKSIEDVKRDRITDGYGTSDQPPSTLEGWKYTAKNLLMYHPADRGEAPLTEAERAVRLLGLTKEIVKGNTRFHGKTMDSRPREDGSVEILYTPIAGSSPMHISGRDRDKSKRYDLDDLRKTPNPFYVESDKRADNGYSFVRTPSPAPGLDESPFITWGEIDGTPMRLDLEDTPIDIGGSADGPHYNIPSAPPRDVRAHSLSRDASRKLRERSNSMFKKPPLPSPHRSGSASPNVRTLSPAAQKFFRKAIAKSSSTVDESLRASYRGASPRGASPGAVTPKSVRSISRFGKDGTSSETRSP
notes: BiFC fusion transiently expressed in Arabidopsis leaf mesophyll protoplasts; also called Ath DGCR14l; Arabidopsis DGCR14; not shown: C-terminal fragment of CFP (cCFP) from vector pSATI-cCFP-C

What all share (experiment): bimolecular fluorescence complementation (BiFC) in Arabidopsis protoplasts
Experiment [1] concerns the target T1, cCFP-DGCR14/ESS2 (human DGCR14/ESS2 …). On the procedure:
(§1) Protoplast isolation and transfection were performed as previously described (Xie et al. (The Plant Cell 30, 1645-1660 (2018)). For subcellular localization, 8 μg of DGCR14l-YFP and DGCR14/ESS2-YFP constructs were co-transfected with 2 μg of the nuclear marker construct (mCherry-)VirD2NLS), respectively, into 100 μl of protoplasts (˜2×10⁴ cells) to determine their subcellular localizations. For colocalization, paired constructs (5 μg each) were co-transfected into 100 μl of protoplasts. For BiFC, paired genes were cloned into pSATI-nVenus-C (fuse with nVenus) and pSATI-cCFP-C (fuse with cCFP), respectively. Then their expression cassettes were cloned into pUC119 (pUC-RCS) vector using AscI for transient expression in protoplasts. The generated constructs (4 μl of nVenus construct and 4 μl of cCFP construct) were co-transfected with 2 μl of the nuclear marker construct (mCherry-VirD2NLS) into 100 μl of protoplasts. After 14 h incubation under weak light at room temperature, protoplasts were collected and resuspended in cold W5 solution (2 mM MES pH 5.7, 154 mM NaCl, 125 mM CaCl₂, and 5 mM KCl) to subject to microscopy. Images were collected using a Zeiss LSM 710 confocal microscope, equipped with 514 and 561 nm laser lines for excitation of YFP and mCherry, respectively. Images were processed using Zen software (Zeiss).
(§2) To further test the association of DGCR14l and DGCR14/ESS2 with spliceosome, a bimolecular fluorescence complementation (BiFC) assay was performed in Arabidopsis protoplasts. In this assay, DGCR14 orthologs and U1-70 k were fused with split YFP (C-terminal fragment of CFP (cCFP) and N-terminal of Venus (nVenus)), and co-expressed in protoplasts. The interaction between two proteins will bring cCFP and nVenus together to form a functional YFP, which then leads to fluorescence. […] In contrast, no YFP signal was detected from DGCR14l-U2B or DGCR14/ESS2-U2B interaction (FIG. 2C), further supporting DGCR14's selectivity on spliceosome components.

The target of experiment [2] is B1. On the procedure:
as §1, §2

Experiment [3] addresses B2. On the procedure: as §1, §2

Take B1: in experiment [1], the binding result is “binds”.

Consider B2, for which the binding result in experiment [1] is “no binding”.

As for B3, the binding result in experiment [2] is listed as “binds”; in experiment [3], “no binding”.

The record behind these values is US20210062213A1 (UT BATTELLE, published 2021).
